Laboratory results: patent publication EP1073891B1, “METHOD OF PREDICTING RECEPTOR MODULATING ACTIVITY” (Duke University, priority 1998, dated 1999)

Legend:
Assay type in all cases: cell-based
ERα = molecular target: T1, ERα (Homo sapiens, UniProt P03372); assay: Disruption of ERα transcriptional activity by peptide-Gal4DBD fusions, 3xERELuc reporter in HeLa cells (Examples 101.4, 101.7)
T1 sequence (P03372 1-595): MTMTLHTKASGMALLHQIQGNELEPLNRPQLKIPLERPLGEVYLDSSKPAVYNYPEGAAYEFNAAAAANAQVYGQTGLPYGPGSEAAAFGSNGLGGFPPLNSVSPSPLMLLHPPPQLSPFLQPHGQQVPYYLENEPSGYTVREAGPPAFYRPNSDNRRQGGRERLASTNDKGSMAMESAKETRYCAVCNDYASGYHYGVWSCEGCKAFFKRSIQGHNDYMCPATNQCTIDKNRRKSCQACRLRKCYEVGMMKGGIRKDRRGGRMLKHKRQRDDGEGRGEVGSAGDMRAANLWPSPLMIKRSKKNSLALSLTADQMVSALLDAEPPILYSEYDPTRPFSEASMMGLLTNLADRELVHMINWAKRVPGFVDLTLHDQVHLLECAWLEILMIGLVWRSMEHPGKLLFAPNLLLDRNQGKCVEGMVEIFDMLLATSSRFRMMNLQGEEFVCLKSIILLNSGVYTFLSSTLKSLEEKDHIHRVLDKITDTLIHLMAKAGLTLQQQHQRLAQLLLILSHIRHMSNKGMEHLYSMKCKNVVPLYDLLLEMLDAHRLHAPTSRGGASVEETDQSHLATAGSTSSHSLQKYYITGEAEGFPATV
Description: HeLa cells were transfected with ERα expression plasmid (RST7ERα), 3xERELuc reporter, pCMVβgal along with different peptide-Gal4DBD fusion constructs. pM is the Gal4DBD control without peptide fusion. Luciferase activity was measured and normalized (Fig. 16). The ability of different peptides to disrupt ERα transcriptional activity correlates with the affinity of these peptides to ERα as measured in mammalian two-hybrid assays in [Figure 15(A)]. […] Two copies of LXXLL motifs interact synergistically to disrupt ER transcriptional activity. 2XF6: two copies of F6 peptide was constructed in tandem with a 54-amino acid spacing linker that has the same sequence as in that in between GRIP-1 NR box II and NR box III. F6G:Ga14DBD-F6 fusion with only one copy of F6 peptide plus the linker. Transient transfection was performed in HeLa cells with 3xERELuc, RST7ERα, pCMVβgal and increasing amount of Gal4DBD-peptide fusion constructs as indicated in the X-axis.
(§1) It contains the LXXLL motif. […] HeLa cells were transfected with either ERα or ERβ expression plasmids along with 3xERELuc reporter, pCMVβgal and peptide-DBD fusion constructs as indicated.

RAR = molecular target: T2, RAR (Homo sapiens, UniProt P10276); assay: Mammalian two-hybrid of LXXLL peptides with nuclear receptors (Example 101.6); conditions: mammalian two-hybrid receptor panel
T2 construct: Full length receptors and selected peptides were expressed as VP16 and Gal4 DBD fusions, respectively; expressed in transfected cells; host or cells: mammalian cells
T2 sequence (P10276 1-462): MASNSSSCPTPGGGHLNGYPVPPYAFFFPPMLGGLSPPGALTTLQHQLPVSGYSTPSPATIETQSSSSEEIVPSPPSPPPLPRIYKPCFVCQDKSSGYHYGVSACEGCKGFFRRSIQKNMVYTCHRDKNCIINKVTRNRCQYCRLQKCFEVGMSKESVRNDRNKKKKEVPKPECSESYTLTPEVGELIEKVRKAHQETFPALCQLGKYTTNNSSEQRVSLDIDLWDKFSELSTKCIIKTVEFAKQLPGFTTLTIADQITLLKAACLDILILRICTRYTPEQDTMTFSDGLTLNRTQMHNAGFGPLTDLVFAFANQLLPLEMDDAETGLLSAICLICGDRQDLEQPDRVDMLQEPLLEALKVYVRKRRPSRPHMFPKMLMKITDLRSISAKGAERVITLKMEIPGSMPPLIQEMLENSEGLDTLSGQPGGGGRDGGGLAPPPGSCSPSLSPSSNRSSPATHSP
Source text: (§2) Plasmids: All the Gal4DBD-peptide fusions were constructed as follows: DNA sequences code for the peptides were excised from mBAX vector with Xhol and Xbal restriction enzymes and subcloned into pMsx vector derived from pM vector (Clontech) with a linker sequence to generate infram Sall and Nhel sites for cloning. VP16ER-a construct was generated by polymerase chain reaction (PCR) of full length human ER-α cDNA with primers containing ECoRI flanking both 5' and 3' ends. […]
(§3) The interactions between different LXXLL motifs and different nuclear receptors were assayed in a mammalian two-hybrid system (Fig. 18). Full length receptors and selected peptides were expressed as VP16 and Gal4 DBD fusions, respectively. The strength of the interactions was measured by the activity of the 5xGa14Luc3 reporter gene. […]

TR = molecular target: T3, TR (Homo sapiens, UniProt P10828); assay: as above; conditions: mammalian two-hybrid receptor panel
T3 construct: Full length receptors and selected peptides were expressed as VP16 and Gal4 DBD fusions, respectively; expressed in transfected cells; host or cells: mammalian cells; the plasmid was a gift (D.D. More, Baylor College of Medicine)
T3 sequence (P10828 1-461): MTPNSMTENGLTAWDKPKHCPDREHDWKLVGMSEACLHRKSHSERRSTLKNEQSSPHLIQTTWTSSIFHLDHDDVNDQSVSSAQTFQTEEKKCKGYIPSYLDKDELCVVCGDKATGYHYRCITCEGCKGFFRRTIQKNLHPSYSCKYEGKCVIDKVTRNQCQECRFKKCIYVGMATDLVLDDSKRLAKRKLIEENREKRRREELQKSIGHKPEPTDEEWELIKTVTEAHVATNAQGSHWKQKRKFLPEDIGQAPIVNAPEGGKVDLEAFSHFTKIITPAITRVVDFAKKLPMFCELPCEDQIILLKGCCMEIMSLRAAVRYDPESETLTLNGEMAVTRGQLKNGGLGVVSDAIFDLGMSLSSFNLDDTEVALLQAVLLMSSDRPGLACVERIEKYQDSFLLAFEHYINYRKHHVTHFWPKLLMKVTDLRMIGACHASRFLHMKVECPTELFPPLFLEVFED
Source text: as §2, §3

ERβ [1] = molecular target: T4, ERβ (Homo sapiens, UniProt Q92731); assay: Disruption of ERβ transcriptional activation by peptide-DBD fusions, 3xERELuc reporter in HeLa cells (Example 101.7); conditions: 17β-estradiol
Source text: as §1
Target sequence in this assay (Q92731 whole entry, the tested form may be a part): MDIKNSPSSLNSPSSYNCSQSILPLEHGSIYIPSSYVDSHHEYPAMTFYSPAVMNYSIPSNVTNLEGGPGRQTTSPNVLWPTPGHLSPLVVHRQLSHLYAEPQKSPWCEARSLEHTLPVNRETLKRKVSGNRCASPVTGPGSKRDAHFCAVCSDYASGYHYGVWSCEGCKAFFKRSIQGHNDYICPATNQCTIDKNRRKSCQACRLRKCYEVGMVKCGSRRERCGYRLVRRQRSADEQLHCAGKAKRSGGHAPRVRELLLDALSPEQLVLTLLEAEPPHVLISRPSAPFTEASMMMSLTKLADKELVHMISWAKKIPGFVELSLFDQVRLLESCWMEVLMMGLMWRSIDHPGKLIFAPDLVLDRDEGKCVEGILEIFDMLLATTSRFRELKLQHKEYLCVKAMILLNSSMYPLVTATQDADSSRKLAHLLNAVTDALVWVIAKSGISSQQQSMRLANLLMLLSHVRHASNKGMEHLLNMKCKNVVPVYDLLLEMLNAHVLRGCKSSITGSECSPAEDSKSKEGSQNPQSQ

ERβ [2] = molecular target: T4, ERβ; assay: Mammalian two-hybrid of LXXLL peptides with nuclear receptors (Example 101.6); design: Full length receptors and selected peptides were expressed as VP16 and Gal4 DBD fusions, respectively; expressed in transfected cells; conditions: mammalian two-hybrid receptor panel
Source text: as §2, §3
Target sequence in this assay (Q92731 whole entry, species assumed, the tested form may be a part): as the sequence (Q92731 whole entry, the tested form may be a part) above

- disruption of ERα transcriptional activity (ERα): did not interfere
- interaction with RARα (RAR): selective interactions
- interaction with TRβ (TR): selective interactions
- disruption of the transcriptional activation by ERβ (ERβ [1]): strongly disrupted
- interaction with ERβ (ERβ [2]): selective interactions
Sequence: SSIKDFPNLISLLSR [Peptide #293]
